{
  "source": "paper PMC4933373",
  "about": "“Conformational Stability of the NH2-Terminal Propeptide of the Precursor of Pulmonary Surfactant Protein SP-B” (PLoS ONE, 2016)",
  "proteins": {"B1": {"name": "NH2-terminal propeptide of the precursor of pulmonary surfactant protein SP-B (recombinant human SP-BN) (domain or fragment, UniProt P07988 24-200, looked up)", "chain": "AWTTSSLACAQGPEFWCQSLEQALQCRALGHCLQEVWGHVGADDLCQECEDIVHILNKMAKEAIFQDTMRKFLEQECNVLPLKLLMPQCNQVLDDYFPLVIDYFQNQTDSNGICMHLGLCKSRQPEPEQEPGMSDPLPKPLRDPLPDPLLDKLVLPVLPGALQARPGPHTQDLSEQQ", "notes": "177 amino acids, 19,902 Da from the composition; Not glycosylated (made in bacteria); also called N-terminal propeptide of proSP-B; the propeptide; source: E. coli, expressed as fusion MBP-SP-BN, purified after cleaving the fusion with factor Xa"}},
  "key": {"[1]": {"target": "the molecule itself", "assay": "AUC; sedimentation velocity, 0.15 mg/mL SP-BN in 5 mM Tris-HCl pH 7.0, 150 mM NaCl, 20°C, 48,000 rpm"}, "[2]": {"target": "the molecule itself", "assay": "AUC; sedimentation velocity, 0.15 mg/mL SP-BN in 5 mM Tris-HCl pH 7.0, 500 mM NaCl, 20°C, 48,000 rpm; 35% of the loaded protein detected"}, "[3]": {"target": "the molecule itself", "assay": "cross-linking; 0.26 mg/mL SP-BN in 20 mM Tris-HCl, 500 mM NaCl pH 7.0, 0.08% (v/v) glutaraldehyde for 20 s and 120 s at 20°C; SDS-PAGE and immunoblot"}, "[4]": {"target": "the molecule itself", "assay": "differential scanning calorimetry; 0.3 mg/mL SP-BN in 5 mM Tris-HCl pH 7, 500 mM NaCl, 20-120°C at 60°C/h; second transition fitted to the Non Two-State model with two peaks; ratio of van't Hoff to calorimetric enthalpy"}},
  "data": [
    {"protein": "B1", "values": [
      {"measurement": "stoichiometry N", "setting": "[1]", "result": 2},
      {"measurement": "stoichiometry N", "setting": "[2]", "result": 6},
      {"measurement": "stoichiometry N", "setting": "[3]", "result": 3},
      {"measurement": "stoichiometry N", "setting": "[4]", "result": "~4"}
    ]}
  ]
}
